Experimental data published in article PMC9482650, “Quantitative fragmentomics allow affinity mapping of interactomes” (Nature Communications, 2022).

T1: HTRA3, P83110
T1 sequence (P83110 354-453, limits assumed, looked up): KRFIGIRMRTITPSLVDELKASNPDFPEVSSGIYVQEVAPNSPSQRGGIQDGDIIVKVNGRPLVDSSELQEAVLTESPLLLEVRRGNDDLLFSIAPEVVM

T2: ARHGAP21, Q5T5U3
T2 sequence (Q5T5U3 45-169, limits assumed, looked up): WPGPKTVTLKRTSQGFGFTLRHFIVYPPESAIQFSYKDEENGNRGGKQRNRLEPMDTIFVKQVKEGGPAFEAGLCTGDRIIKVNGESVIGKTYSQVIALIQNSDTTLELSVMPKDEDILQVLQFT

T3: TIAM2, Q8IVF5
T3 sequence (Q8IVF5 885-986, limits assumed, looked up): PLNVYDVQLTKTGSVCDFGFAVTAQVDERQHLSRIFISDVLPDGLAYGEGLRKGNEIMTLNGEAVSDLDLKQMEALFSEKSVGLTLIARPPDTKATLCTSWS

T4: LIN7B, Q9HAP6
T4 sequence (Q9HAP6 88-185, limits assumed, looked up): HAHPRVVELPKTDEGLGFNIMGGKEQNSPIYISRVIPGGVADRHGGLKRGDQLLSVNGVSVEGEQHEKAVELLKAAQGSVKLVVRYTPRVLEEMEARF

T5: LNX2_2, Q8N448
T5 sequence (Q8N448 334-432, limits assumed, looked up): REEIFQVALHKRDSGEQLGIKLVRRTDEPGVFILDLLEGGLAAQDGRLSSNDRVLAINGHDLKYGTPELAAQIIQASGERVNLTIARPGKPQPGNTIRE

T6: GRIP1_5, Q9Y3R0
T6 sequence (Q9Y3R0 568-668, limits assumed, looked up): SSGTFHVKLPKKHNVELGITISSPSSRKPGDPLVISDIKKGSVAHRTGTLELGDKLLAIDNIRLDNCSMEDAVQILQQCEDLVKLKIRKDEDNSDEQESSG

T7: DLG3_2, Q92796
T7 sequence (Q92796 221-321, limits assumed, looked up): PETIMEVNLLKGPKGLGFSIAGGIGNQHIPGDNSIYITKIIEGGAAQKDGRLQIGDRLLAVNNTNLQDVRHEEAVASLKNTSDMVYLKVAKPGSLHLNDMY

T8: RADIL, Q96JH8
T8 sequence (Q96JH8 971-1071, limits assumed, looked up): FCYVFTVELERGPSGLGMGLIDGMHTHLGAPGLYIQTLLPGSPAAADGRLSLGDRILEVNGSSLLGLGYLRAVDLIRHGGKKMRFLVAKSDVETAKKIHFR

T9: LNX2_3, Q8N448
T9 sequence (Q8N448 463-564, limits assumed, looked up): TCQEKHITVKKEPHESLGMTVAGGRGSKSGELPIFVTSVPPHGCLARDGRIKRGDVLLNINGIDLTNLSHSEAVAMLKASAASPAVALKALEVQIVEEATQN

T10: MPP2, Q14168
T10 sequence (Q14168 180-250, limits assumed, looked up): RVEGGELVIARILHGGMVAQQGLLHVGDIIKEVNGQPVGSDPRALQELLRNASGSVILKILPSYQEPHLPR

T11: GRIP1_4, Q9Y3R0
T11 sequence (Q9Y3R0 467-571, limits assumed, looked up): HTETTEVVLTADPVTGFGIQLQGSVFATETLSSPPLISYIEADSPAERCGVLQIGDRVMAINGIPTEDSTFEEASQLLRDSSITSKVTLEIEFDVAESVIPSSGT

T12: NHERF3_1, Q5T2W1
T12 sequence (Q5T2W1 4-100, limits assumed, looked up): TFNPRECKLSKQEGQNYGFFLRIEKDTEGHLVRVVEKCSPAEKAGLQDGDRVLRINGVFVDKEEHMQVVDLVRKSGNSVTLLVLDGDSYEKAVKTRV


Assays:
Experiment in all cases: holdup assay
Parameters in all cases: key: below the threshold = too weak to quantify, mostly under pKd 3.1 to 4
Settings in all cases: plain residues with an end cap or a label only (N-terminal biotin on a linker: ado-ado)
PARD3_3, Q8TEW0 = target: PARD3_3, Q8TEW0
Chain of PARD3_3, Q8TEW0 (Q8TEW0 582-685): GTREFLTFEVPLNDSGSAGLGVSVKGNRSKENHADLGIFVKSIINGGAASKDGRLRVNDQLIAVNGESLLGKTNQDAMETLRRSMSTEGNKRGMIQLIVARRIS

IL16_4, Q14005 = target: IL16_4, Q14005
Chain of IL16_4, Q14005 (Q14005 1229-1329): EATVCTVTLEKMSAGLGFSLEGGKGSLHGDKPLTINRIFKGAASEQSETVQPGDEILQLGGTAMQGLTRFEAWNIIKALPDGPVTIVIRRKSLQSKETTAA

DLG1_1, Q12959 = target: DLG1_1, Q12959
HTRA3, P83110 = target: T1, HTRA3, P83110
FRMPD4, Q14CM0 = target: FRMPD4, Q14CM0
Chain of FRMPD4, Q14CM0 (Q14CM0 67-160): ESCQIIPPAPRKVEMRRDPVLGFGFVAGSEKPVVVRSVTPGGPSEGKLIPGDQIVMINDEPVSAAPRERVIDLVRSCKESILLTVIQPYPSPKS

ARHGAP21, Q5T5U3 = target: T2, ARHGAP21, Q5T5U3
TJP2_1, Q9UDY2 = target: TJP2_1, Q9UDY2
Chain of TJP2_1, Q9UDY2 (Q9UDY2 24-128): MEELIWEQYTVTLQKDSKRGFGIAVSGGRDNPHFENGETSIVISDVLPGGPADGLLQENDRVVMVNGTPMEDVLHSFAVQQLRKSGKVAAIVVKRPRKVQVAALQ

TIAM2, Q8IVF5 = target: T3, TIAM2, Q8IVF5
GRIP2_5, Q9C0E4 = target: GRIP2_5, Q9C0E4
Chain of GRIP2_5, Q9C0E4 (Q9C0E4 544-642): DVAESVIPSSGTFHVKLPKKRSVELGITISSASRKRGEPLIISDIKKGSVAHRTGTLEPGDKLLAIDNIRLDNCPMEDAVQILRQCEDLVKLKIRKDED

LIN7B, Q9HAP6 = target: T4, LIN7B, Q9HAP6
IL16_3, Q14005 = target: IL16_3, Q14005
Chain of IL16_3, Q14005 (Q14005 1107-1207): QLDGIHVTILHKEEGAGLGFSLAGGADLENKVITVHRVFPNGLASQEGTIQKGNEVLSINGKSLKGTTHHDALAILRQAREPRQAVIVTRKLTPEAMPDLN

LNX2_2, Q8N448 = target: T5, LNX2_2, Q8N448
GRIP1_5, Q9Y3R0 = target: T6, GRIP1_5, Q9Y3R0
SNX27, Q96L92 = target: SNX27, Q96L92
LAP2, Q96RT1 = target: LAP2, Q96RT1
Chain of LAP2, Q96RT1 (Q96RT1 other isoform, or with tags, fused parts or gaps): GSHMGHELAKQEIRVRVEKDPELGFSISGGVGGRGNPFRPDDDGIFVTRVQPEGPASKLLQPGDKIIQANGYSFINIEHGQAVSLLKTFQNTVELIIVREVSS

MAST2, Q6P0Q8 = target: MAST2, Q6P0Q8
Chain of MAST2, Q6P0Q8 (Q6P0Q8 1099-1202): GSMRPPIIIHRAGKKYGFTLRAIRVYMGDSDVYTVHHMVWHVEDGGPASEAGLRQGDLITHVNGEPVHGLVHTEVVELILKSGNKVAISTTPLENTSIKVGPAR

DLG3_2, Q92796 = target: T7, DLG3_2, Q92796
RADIL, Q96JH8 = target: T8, RADIL, Q96JH8
Inadl_2, Q8NI35 = target: Inadl_2, Q8NI35
Chain of Inadl_2, Q8NI35 (Q8NI35 238-335): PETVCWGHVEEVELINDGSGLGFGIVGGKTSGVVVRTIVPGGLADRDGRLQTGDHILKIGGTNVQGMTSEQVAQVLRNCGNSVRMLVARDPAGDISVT

LNX2_3, Q8N448 = target: T9, LNX2_3, Q8N448
NOS1, P29475 = target: NOS1, P29475
Chain of NOS1, P29475 (P29475 9-101): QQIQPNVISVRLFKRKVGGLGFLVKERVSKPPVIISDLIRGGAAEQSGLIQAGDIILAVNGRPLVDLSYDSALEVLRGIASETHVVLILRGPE

MAGI2_2, Q86UL8 = target: MAGI2_2, Q86UL8
Chain of MAGI2_2, Q86UL8 (Q86UL8 410-522): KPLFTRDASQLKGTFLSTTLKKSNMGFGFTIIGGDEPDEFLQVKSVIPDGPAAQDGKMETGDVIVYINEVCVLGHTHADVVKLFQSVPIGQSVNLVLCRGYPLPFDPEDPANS

MPP2, Q14168 = target: T10, MPP2, Q14168
GRIP1_4, Q9Y3R0 = target: T11, GRIP1_4, Q9Y3R0
NHERF3_1, Q5T2W1 = target: T12, NHERF3_1, Q5T2W1

Binder	pKd (PARD3_3, Q8TEW0)	pKd (IL16_4, Q14005)	pKd (DLG1_1, Q12959)	pKd (HTRA3, P83110)	pKd (FRMPD4, Q14CM0)	pKd (ARHGAP21, Q5T5U3)	pKd (TJP2_1, Q9UDY2)	pKd (TIAM2, Q8IVF5)	pKd (GRIP2_5, Q9C0E4)	pKd (LIN7B, Q9HAP6)	pKd (IL16_3, Q14005)	pKd (LNX2_2, Q8N448)	pKd (GRIP1_5, Q9Y3R0)	pKd (SNX27, Q96L92)	pKd (LAP2, Q96RT1)	pKd (MAST2, Q6P0Q8)	pKd (DLG3_2, Q92796)	pKd (RADIL, Q96JH8)	pKd (Inadl_2, Q8NI35)	pKd (LNX2_3, Q8N448)	also measured
TSSMRGMDAV [RSRC2, Q7L4I2]	below the threshold	below the threshold	below the threshold	below the threshold	below the threshold	below the threshold	below the threshold	below the threshold	below the threshold	below the threshold	below the threshold	below the threshold	below the threshold	below the threshold	below the threshold	below the threshold	below the threshold	below the threshold	below the threshold	below the threshold	pKd (NOS1, P29475): 4.38; pKd (MAGI2_2, Q86UL8): 4.02; pKd (MPP2, Q14168): below the threshold; pKd (GRIP1_4, Q9Y3R0): below the threshold; pKd (NHERF3_1, Q5T2W1): below the threshold
TACCHSETVV [TGFA, P01135]	3.85	below the threshold	4.56	below the threshold	below the threshold	4.08	below the threshold	below the threshold	below the threshold	below the threshold	below the threshold	5.21	below the threshold	5.6	4.05	5.1	4.74	4.35	below the threshold	below the threshold	pKd (NOS1, P29475): below the threshold; pKd (MAGI2_2, Q86UL8): 4.74; pKd (MPP2, Q14168): below the threshold; pKd (GRIP1_4, Q9Y3R0): below the threshold; pKd (NHERF3_1, Q5T2W1): 3.64
KKMPSIESDV [GRIN2A, Q12879]	below the threshold	below the threshold	4.75	below the threshold	below the threshold	below the threshold	below the threshold	3.96	below the threshold	3.71	below the threshold	below the threshold	below the threshold	3.64	4.6	4.95	5.25	below the threshold	below the threshold	below the threshold	pKd (NOS1, P29475): below the threshold; pKd (MAGI2_2, Q86UL8): 4.05; pKd (MPP2, Q14168): below the threshold; pKd (GRIP1_4, Q9Y3R0): below the threshold; pKd (NHERF3_1, Q5T2W1): below the threshold
TSQESEDTYL [TBC1D10A, Q9BXI6]	4.63	below the threshold	below the threshold	below the threshold	5.3	4.45	below the threshold	below the threshold	below the threshold	below the threshold	below the threshold	below the threshold	below the threshold	5.27	3.54	5.41	3.61	below the threshold	below the threshold	below the threshold	pKd (NOS1, P29475): below the threshold; pKd (MAGI2_2, Q86UL8): below the threshold; pKd (MPP2, Q14168): below the threshold; pKd (GRIP1_4, Q9Y3R0): below the threshold; pKd (NHERF3_1, Q5T2W1): 5.69
HSGYRLNDYV [CLDN14, O95500]	3.83	below the threshold	below the threshold	4.55	3.58	3.95	4.72	below the threshold	below the threshold	below the threshold	below the threshold	4.56	below the threshold	3.72	below the threshold	3.89	below the threshold	4.6	below the threshold	below the threshold	pKd (NOS1, P29475): 4.21; pKd (MAGI2_2, Q86UL8): below the threshold; pKd (MPP2, Q14168): below the threshold; pKd (GRIP1_4, Q9Y3R0): below the threshold; pKd (NHERF3_1, Q5T2W1): 4.59
DDENIRTSDV [PLEKHA2, Q9HB19]	below the threshold	below the threshold	3.8	below the threshold	below the threshold	4.37	below the threshold	below the threshold	below the threshold	below the threshold	below the threshold	below the threshold	below the threshold	4.84	4.18	4.9	4.38	below the threshold	below the threshold	below the threshold	pKd (NOS1, P29475): below the threshold; pKd (MAGI2_2, Q86UL8): below the threshold; pKd (MPP2, Q14168): below the threshold; pKd (GRIP1_4, Q9Y3R0): below the threshold; pKd (NHERF3_1, Q5T2W1): below the threshold
